Assay results published in paper PMC9616523.

Legend:
[1] = target: human FcγRIIIa (human) (UniProt P08637)
[2] = target: human FcγRI (human) (UniProt P12314); assay: SPR; Biacore T200; hFcγRI captured on an NTA chip loaded with Ni2+ (≈200 RU); AvFc flowed over, 5 concentrations from 324 nM in 1:3 dilutions; regeneration 350 mM EDTA; 1:1 binding model
[3] = target: human FcγRIIIa (human) (UniProt P08637); assay: SPR; Biacore T200; receptor captured by its 6xHis tag on an anti‐6xHis antibody amine‐coupled to a CM5 chip; AvFc variants flowed over, 5 concentrations from 2 μM in 1:2 dilutions, 30 μL/min, 240 s association, 600 s dissociation; 1:1 binding model
[4] = target: mouse FcγRIV (mouse); assay: as above
Chain of mouse FcγRIV (mouse) (A0A0B4J1G0 21-203): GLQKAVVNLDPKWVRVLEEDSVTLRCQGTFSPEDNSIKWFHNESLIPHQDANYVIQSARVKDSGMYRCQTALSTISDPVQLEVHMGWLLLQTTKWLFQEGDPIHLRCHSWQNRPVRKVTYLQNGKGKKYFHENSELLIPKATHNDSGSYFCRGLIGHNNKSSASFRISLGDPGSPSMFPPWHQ

Chain of human FcγRI (human) (P12314 16-292): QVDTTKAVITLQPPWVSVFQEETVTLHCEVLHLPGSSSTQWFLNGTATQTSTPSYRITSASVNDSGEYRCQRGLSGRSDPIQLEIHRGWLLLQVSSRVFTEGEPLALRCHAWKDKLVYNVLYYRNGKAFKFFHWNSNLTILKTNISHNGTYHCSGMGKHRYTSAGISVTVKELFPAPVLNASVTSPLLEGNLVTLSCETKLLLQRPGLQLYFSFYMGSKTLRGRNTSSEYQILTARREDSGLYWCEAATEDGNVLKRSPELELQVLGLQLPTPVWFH

Substance | ADCC reporter assay: luciferase in Jurkat effector cells expressing hFcγRIIIa, B16F10 target cells, AvFc 650 nM to 8.32 pM; EC50 [1] [nM] | ADCC reporter assay: luciferase in Jurkat effector cells expressing hFcγRIIIa, B16F10 target cells, AvFc 650 nM to 8.32 pM; highest luciferase induction [1] [fold] | fold increase in affinity over AvFc^WT [2] [fold] | fold increase in affinity over AvFc^WT [3] [fold] | fold increase in affinity over AvFc^WT [4] [fold]
Avaren‐Fc expressed in glycoengineered ΔXylT/ΔFucT N. benthamiana (AvFc^ΔXF) (Fc fusion) | 2.75 | 5.5 | 1.9 | 3.8 | 5.5
Avaren‐Fc expressed in wild‐type N. benthamiana (AvFc^WT) (Fc fusion) | 13.8 | 2.9 |  |  | 
